Laboratory results: patent US6884600

T1: GST-M110-(M1-E309), GST tag not cleaved
T1 chain: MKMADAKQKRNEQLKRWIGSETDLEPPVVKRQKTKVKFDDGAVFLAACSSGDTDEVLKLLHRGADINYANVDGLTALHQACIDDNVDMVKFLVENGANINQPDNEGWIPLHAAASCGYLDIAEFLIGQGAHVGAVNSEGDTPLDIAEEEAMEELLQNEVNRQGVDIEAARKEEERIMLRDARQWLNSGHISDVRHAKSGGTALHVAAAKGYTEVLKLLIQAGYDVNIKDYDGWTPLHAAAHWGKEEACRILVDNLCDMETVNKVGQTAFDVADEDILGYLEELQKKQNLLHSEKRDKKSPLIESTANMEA

B1: β isoform of PP1c released from rabbit skeletal muscle PP1G (protein)
chain: ADGELNVDSLITRLLEVRGCRPGKIVQMTEAEVRGLCIKSREIFLSQPILLELEAPLKICGDIHGQYTDLLRLFEYGGFPPEANYLFLGDYVDRGKQSLETICLLLAYKIKYPENFFLLRGNHECASINRIYGFYDECKRRFNIKLWKTFTDCFNCLPIAAIVDEKIFCCHGGLSPDLQSMEQIRRIMRPTDVPDTGLLCDLLWSDPDKDVQGWGENDRGVSFTFGADVVSKFLNRHDLDLICRAHQVVEDGYEFFAKRQLVTLFSAPNYCGEFDNAGGMMSVDETLMCSFQILKPSEKKAKYQYGGLNSGRPVTPPRTANPPKKR
B2: GM-(G63-N75) synthetic peptide (peptide)
peptide: GRRVSFADNFGFN

How the values were obtained:
[1] = molecular target: T1, GST-M110-(M1-E309), GST tag not cleaved
[2] = molecular target: catalytic subunit of protein phosphatase-1, γ1-isoform (PP1γ1), produced in Escherichia coli (UniProt P36873); assay: co-crystal structure at 3.0 Å, method of Lee and Richards
Chain of catalytic subunit of protein phosphatase-1, γ1-isoform (PP1γ1), produced in Escherichia coli (P36873 whole entry, canonical isoform): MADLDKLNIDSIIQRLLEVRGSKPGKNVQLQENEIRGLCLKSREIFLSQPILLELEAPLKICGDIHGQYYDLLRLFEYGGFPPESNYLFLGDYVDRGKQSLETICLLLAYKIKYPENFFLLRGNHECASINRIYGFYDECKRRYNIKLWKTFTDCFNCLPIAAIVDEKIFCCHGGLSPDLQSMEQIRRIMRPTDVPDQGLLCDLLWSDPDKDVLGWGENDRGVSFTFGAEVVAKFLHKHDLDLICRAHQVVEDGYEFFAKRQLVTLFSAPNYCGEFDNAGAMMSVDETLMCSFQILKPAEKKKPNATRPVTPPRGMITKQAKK

Binder	concentration needed to modulate the substrate specificity of PP1c, relative to the cleaved fragment [1]	total solvent accessible surface area buried on formation of the complex [2] [Å2]
B1	If the GST tags were not cleaved with thrombin, a 10-fold higher concentration of M110-(M1-E309) was needed to modulate the substrate specificity of PP1c	–
B2	–	980
